The record followed here is publication PMC5882647, “Simultaneous Monitoring of Cell-surface Receptor and Tumor-targeted Photodynamic Therapy via TdT-initiated Poly-G-Quadruplexes”.

The data set addresses c-Met-Fc fusion protein (UniProt P08581 25-932). The experiment in a line: EMSA; EMSA: DNA (printed 200 nmol) with c-Met-Fc or BSA (printed 200 nmol) in 10 uL DPBS, 30 min, 37 C; native 4-20% TBE gel, SYBR Green II; pH not stated. To be noted: protein: recombinant; tags: Fc; chain copies: 2. (A gel shift assay detects complexes by their altered migration in electrophoresis.)

c-Met-Fc fusion protein, sequence (P08581 25-932): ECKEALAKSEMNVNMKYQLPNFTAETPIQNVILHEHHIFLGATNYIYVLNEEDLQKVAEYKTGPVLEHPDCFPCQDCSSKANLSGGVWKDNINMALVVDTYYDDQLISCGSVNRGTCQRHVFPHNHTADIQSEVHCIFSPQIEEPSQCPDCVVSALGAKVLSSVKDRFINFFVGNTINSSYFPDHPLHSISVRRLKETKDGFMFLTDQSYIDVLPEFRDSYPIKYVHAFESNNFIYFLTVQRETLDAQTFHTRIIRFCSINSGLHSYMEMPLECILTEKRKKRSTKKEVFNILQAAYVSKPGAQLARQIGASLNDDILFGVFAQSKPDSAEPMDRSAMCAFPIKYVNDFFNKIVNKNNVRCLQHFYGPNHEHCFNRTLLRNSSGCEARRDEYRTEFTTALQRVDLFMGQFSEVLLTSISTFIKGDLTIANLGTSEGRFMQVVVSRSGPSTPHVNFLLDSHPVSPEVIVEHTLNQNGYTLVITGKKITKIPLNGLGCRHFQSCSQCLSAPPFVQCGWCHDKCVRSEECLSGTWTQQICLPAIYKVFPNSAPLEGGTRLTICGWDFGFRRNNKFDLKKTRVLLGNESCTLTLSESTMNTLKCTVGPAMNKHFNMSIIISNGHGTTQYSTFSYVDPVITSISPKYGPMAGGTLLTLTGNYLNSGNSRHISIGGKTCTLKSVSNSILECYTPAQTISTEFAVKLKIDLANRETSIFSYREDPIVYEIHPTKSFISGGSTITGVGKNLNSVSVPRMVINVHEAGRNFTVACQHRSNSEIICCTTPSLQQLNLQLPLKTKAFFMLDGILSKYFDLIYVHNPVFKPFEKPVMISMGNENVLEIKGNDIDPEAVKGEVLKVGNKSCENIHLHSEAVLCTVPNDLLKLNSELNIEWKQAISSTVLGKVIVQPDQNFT

B1: Lib-primer (LP) (ssDNA)
DNA: ATTTAGAGTGACGCAGCAGGACACGGTGGCTTAGTTTTTCAAGGCTTAGTTTTTTTTTTTTTTTTTTAATACAACCTCTCA
As for B1, the binding result was “no binding”.

B2: aptamer-primer (AP; SL1 aptamer + poly-T linker + primer) (ssDNA)
DNA: ATCAGGCTGGATGGTAGCTCGGTCGGGGTGGGTGGGTTGGCAAGTCTGATTTTTTTTTTTTTTTTTTAATACAACCTCTCA
In the case of B2, the binding result is “binds”.
